Test: soluble on expression in E. coli; label from the status in PepcDB or PDB records

Sequence	soluble on expression in E. coli
MGSDKIHHHHHHMGVSKRTVMRYQTCREPGSLSASDKFKSVEAALESHVKEEEARYSGKGRGDGSLWHHLVRVARLAEKLGRSEGLDPATCRLAGLFHDAGKFSGGTYHQDDRPEEERSVDILVELAGKHDLDRDIVDRIARSFQQLYRDGENQTPLTRVLFDADNLDKLGFLGIANYFIKTGLRGKGVSANMLYQLTAELTYARHAADCMATPAGRELALRKAPETYRFILDLLQSLRDDGIFDFKVEEVMFDQLLLDVVSPYSCECRGTLERRLWNVRGIKCLEIHLEHSCPRCEARHEIRFCTPKLRTQGEKNTGDLFRTSQLDIRQAADSYF	not soluble
MGHHHHHHSHMEGSFSDGGALPEGLAEEAEPQGAAWSGDSGTVSQSHSSASGPWEDEGAEDGAPGRDLPLLRRAAAGYAACLLPGAGARPEVEALDASLEDLLTRVDEFVGMLDMLRGDSSHVVSEGVPRIHAKAAEMRRIYSRIDRLEAFVRMVGGRVARMEEQVTKAEAELGTFPRAFKKLLHTMNVPSLFSKSAPSRPQQAGYEAPVLFRTEDYFPCCSERPQL	not soluble
MSNAFEYLRTYVESTTETDAAVARAREDAAEFGLPAPDEMTGQLLTTLAATTNGNGSTGAIAITPAAGLVGLYILNGLADNTTLTCIDPESEHQRQAKALFREAGYSPSRVRFLLSRPLDVMSRLANDSYQLVFGQVSPMDLKALVDAAWPLLRRGGALVLADALLDGTIADQTRKDRDTQAARDADEYIRSIEGAHVARLPLGAGLTVVTKALEHHHHHH	soluble
LKVSEPAPKGFLIIGANDVARQVGLAIAKYDCRVVVTDSNWDYIRQARMTGLEHYYGNPISSHAEDYLNLIGIGHVLALSPDKHFNIMACMQFLSDFGDKRVFCLNDNPTNNVSEKHLVAQEYHGLPFLGGEVSYKKLASLVGQGAEVKHTKLS	not soluble
MLYLAELLQGKNALITGAGRGIGRAVAIALAKEGVNVGLLARSEENLKAVAKEVEAEGVKAVIATADVSSYEEVTTAIETLKNGLGSIDILINNAGISKFGKFLELDVADWEKIIQVNLMGVYYATRAALPSMIEQQSGDIINISSTAGQKGAPVTSAYSASKFGVLGLTESLAMEVRKHNIRVTALTPSTVATDMAVDLGLTDGNPDKVMQAEDIAEFIVAQLKLNKRTFIKSAGLWSTNP	not soluble
KEDMATSELNKTVQKVEEVSKKIKNKAKPKVVWASVYEGSAYIAPKDSYVDNMIKMAGGINACASIDSNEGRVSIEQLHEVAKDADIFVYSSSSDYAPNLDSIKSSAPVLADLDVVKNGNLWVFAPDYYQSVDKTDELIVDLVEMFHPGTTGEKIKHYINYDK	not soluble
MAHCTEYMNAPKKLPADVAEELATTAQKLVQAGKGILAADESTQTIKKRFDNIKLENTIENRASYRDLLFGTKGLGKFISGAILFEETLFQKNEAGVPMVNLLHNENIIPGIKVDKGLVNIPCTDEEKSTQGLDGLAERCKEYYKAGARFAKWRTVLVIDTAKGKPTDLSIHETAWGLARYASICQQNRLVPIVEPEILADGPHSIEVCAVVTQKVLSCVFKALQENGVLLEGALLKPNMVTAGYECTAKTTTQDVGFLTVRTLRRTVPPALPGVVFLSGGQSEEEASVNLNSINALGPHPWALTFSYGRALQASVLNTWQGKKENVAKAREVLLQRAEANSLATYGKYKGGAGGENAGASLYEKKYVY	soluble
AACKFLRRKCTSDCVFAPYFPPEEPTKFANVHRIFGASNVSKILHEVAPHQREDAVNSLAYEAEARLKDPVYGCVGAISVLQRQVLRLQRELEETNADLMRYAGCLGGETTSAYGGRRG	not soluble
MSSSEGNSDASAPGTPVKSSTPSSRGSSPDSPKKQEPSKKRAILNESDDDDDSRPAPRQLSDSSDDNIHPRGGGEKSSPGAGGGLFGDLSGSSDDDSDREGKPKESNTRARLSDSDAESRGSLNDLQGIVMANPDEIDEDEKAKEHVHDTEMVTGRVTLEYAADPPHFVRMPNFLSVATHPFDPQHYEEDEDDEQAKLDDEGRTRLKLRVENTLRWRVRKDENGKEIRESNAKIVKWDDGTMSLYLGNEIFEVSLVPLNSNNLPHLYVKQPTLMSAQAVLTHRMTFRPHSTDSQTHRKVTLNMADRSRKNAQVKVMDDVGQNPEITRRENARKEEESLRAHIRRTQMVRNNFKVRGPRYAGQYSDDEDMPTSSRKGKKKEAPIIGASSESEDDHADTTKKSGSDSDSDEEYRKRKQQQKKQIVTSDEESD	not soluble
MEGEKGSKTRKGDALAREKLLEIAEKIYNQFEEEVVPSVSLPSRTKANLEYSDESDVWVYGDRESERSAKTVKGAFQLLKTTYATDFLINEHLARNRGSTLRELYYISEGWDYAKFKEQGESDRLIEDLEILTSLQREYFHMRPEEDGATMFGPIEITEQTKRGERNIHCQKDVGEGGYQIPFNVENIEFQKHDASMIIAIETGGMYARLMENGFDEAYNAILVHLKGQPARSTRRIIKRMNEELGIPVAVFTDGDPWSYRIYASVAYGAIKSAHLSEFMATPAAKFLGLQPSDIVEYELSTDKLTEQDVSALRSELSDPRFESDYWKEQIQLQLDIGKKAEQQAFAGKGLDFVTEVYLPNRLKEMGMI	soluble
MAYWLLKSEPQVYGIEDLEREGRAIWDGVRNYQARNYLMQMKEGDLCFFYHSGTTPPGIAGRCRVVRTLLPDPTQFDPESPYYDPKATPEKPRWYTVEVAFVEKWPLVPLAELKALFPPDHPLVKRGNRLSVMPVPPEVAEALIVRRGSR	soluble
SEKMKLLYVYDPLCGWCYGFGPVVEKIEKNYKGTVDVEIISGGMVMGNRIAPIGNMSEYILDAIPRLQRMTGIEFGQPYITLLKEGSYVTSSEKPSIALCVYKSFTAERAVEYGHAIQTSFYKEGKDLNQDVLYADLATSYGIDRAAFLKRMKDSVYFNQAHEEFKRAAALGVTGFPTLLLKQENGYTALTEGYATYESIEKQLQKHVKAAGTK	not soluble
MVSIKEHLEELLESFDYSGDVEERIRLLRAAIGRIGNMFYGTENEEIYADQVRRIKLRLRELRETYATSEDNWRELMDNLEELRDQIERLAIRGGIIEK	not soluble
MSLALGSYIERRGELETYFDRTAADTWAKLTSDAPVSGIRATVRAGRDEMRNTLLSWLPADMTGTRLLDAGCGTGALSIEAARRGAKIVAIDLSPTLVAVARERLPDDIDPAAIDFRSGDMLDPELGEFDFVVAMDSLIHYLPHDICRMLATLASRTRQSMAVTFAPKTPLLTLMHFVGGFFPRADRAPAIEPISEKTLRGLVAEDPLLAQWQPGRTHRVSSGFYTSQALEMVREGHHHHHH	soluble
MAHHHHHHMCPYEERQELRISMGFAGRRPNLTFTSDTMDAHAYLVRHWALNAIAESAGKGMSVQRDSIPFLARSQHSIVNENKMTFLRPDGKIKYNIPKHWLLESDSSVNFLNASPGPVLPSEADNLLVCCTIYEERPEKCMRVYRVRTREDYIAVNQEILAAKCQLLEMNEVNGRNSMRISSRSTRASQQKERLGQTQRVLRTSMERKSINTAADSAGLPFSAFALSGLVSNAAFTIHKTDTSRQINIIHSFLRTEPTCKATIARSIVGNNVTLGPDVRITNSIILDNAEIGAGAIISNSVIGSSAMVNSGVRVVSCTVGPQCLVESNETDRVIRA	not soluble
MGSDKIHHHHHHMHVYESDVSWIDDRRTEVSVGDHRIEVDSPPEFGGPEGQLYPETLFPSVLASCLLTTFLEFKDRMGINLKSWNSHVTAELGPSPEKGFKFHRIKIHVKIGVNDEDKEKIPRAMQLAEKYCFISRAIRNNVEEIVDYEFV	not soluble
KIIHIDCDCFYAALEMRDDPSLRGKALAVGGSPDKRGVVATCSYEARAYGVRSAMAMRTALKLCPDLLVVRPRFDVYRAVSKQIHAIFRDYTDLIEPLSLDEAYLDVSASPHFAGSATRIAQDIRRRVAEELHITVSAGVAPNKFLAKIASDWRKPDGLFVITPEQVDGFVAELPVAKLHGVGKVTAERLARMGIRTCADLRQGSKLSLVREFGSFGERLWGLAHGIDERPVEVDSRRQSVSVECTFDRDLPDLAACLEELPTLLEELDGRLQRLDGSYRPDKPFVKLKFHDFTQTTVEQSGAGRDLESYRQLLGQAFARGNRPVRLIGVGVRLLDLQGAHEQLR	not soluble
MAAFMEEALVEARRARDAGEVPVGCVFVHGDKVVARGGNEVNVHRNATRHAEFICIDAILASCRERRLPARQLFSEITVVVTVEPCIMCSAALHTLGVKEIIYGCENDRFGGKTVVDVAAVVGHRIEITGGVRADEAMALLKDFYKGDNPAAPPQAKKKKLEHHHHHH	soluble
MGSDKIHHHHHHMKAVTLRANCDPLFSLFMTSFSEANNIYILNFKKRALQSLLKVKLMYYHESIDSKSKIFPVKIILHDKAVNVPKHWHRSLEISYTYQGSIPDFTIAGKHYSTRPGTILVVNSNEIHSVFFPKTKKRQDSLALSLIFPYPFLMKIVPNYRYRRYEIPDKELLTANNQQNLAELEGILKKFFQFASHQTNSLDEISKTSQILQILYLLTKNFSSIVTTPNDLATTDKPFERLDEIIMFIQEHAKEALTVTKIADHFNLSTSYFSRNFKYYMGNSVIEYLNLVRLHEAYQLLTNTKKSILVISTQVGFPNEKAFTRTFKRIYKVTPTDYRKRLSGKNRTNIL	not soluble
SWMANQFFLLEEYTGSDYQYVGKLHSDQDRGDGSLKYILSGDGAGDLFIINENTGDIQATKRLDREEKPVYILRAQAVNRRTGRPVEPESEFIIKIHDINDNEPIFTKDVYTATVPEMADVGTFVVQVTATDADDPTYGNSAKVVYSILQGQPYFSVESETGIIKTALLNMDRENREQYQVVIQAKDMGGQMGGLSGTTTVNITLTD	soluble
MRGMAANQGERIRRRLSTGERREQLLSVGARLFSESPYDEVWIEQVAEIAGVSRGLLYHYFPNKRDFFAAVVERESERMLRMTAAVPGVPVREQLTAGLDAYLEYVRAHAHGYRAFHRADAAGDRAVRRVYQKALAAQERQILAALAADPEFGPAFEERGDVRLAVRGWLAFTTAVCLEWLRDPEPAREQVRDLCARALLGAVAP	not soluble
MPKETPSKAAADALSDLEIKDSKSNLNKELETLREENRVKSDMLKEKLSKDAENHKAYLKSHQVHRHKLKEMEKEEPLLNEDKERTVLFPIKYHEIWQAYKRAEASFWTAEEIDLSKDIHDWNNRMNENERFFISRVLAFFAASDGIVNENLVENFSTEVQIPEAKSFYGFQIMIENIHSETYSLLIDTYIKDPKESEFLFNAIHTIPEIGEKAEWALRWIQDADALFGERLVAFASIEGVFFSGSFASIFWLKKRGMMPGLTFSNELICRDEGLHTDFACLLFAHLKNKPDPAIVEKIVTEAVEIEQRYFLDALPVALLGMNADLMNQYVEFVADRLLVAFGNKKYYKVENPFDFMENISLAGKTNFFEKRVSDYQKAGVMSKSTKQEAGAFTFNEDF	soluble
KKNYALSFNANVGFNKNKVKSLGSLMDYSADSGWASTDIQSDFKVQPGHSVGEIYGFVSDGRYEVSDFEGFIDGKWVLKAGVADASDIIGEKYLRPGAMKLKNVDGSEDNKVTKDDQKVIGDTNPFCSGGFSVNARVYGFDLTANFTYSIGNDIYNANKIEYTSSSKYKYRNMIDVMAEEKRWTNLNADGTICNDPTQLAAMNANTSMWSPWTQKYVLTDWAVEDGSFLRLATLSIGYTLPQTLTRKVGIQNLRFYATGYNLFCITNYSGFDPEVSTRTKSALTPGVDYSAYPRSRQYVIGLNLTF	not soluble
MGSDKIHHHHHHMILLVGGEKGGAGKSCLAQNIAVHITQKFNANVLMVDCDPQRTTSDWIQARNEDASLPAINCIQLYGKIRNDLLGLDQRFDYVIVDCGGQDNLAMRAAMSVATYVVLPLRPKRRDLKTLPHMEDMLSTCKMVNPKMVATVVMTQCPALPSQYKRILEAKEVVESFGLRVLDAVTFSRNVYDDSEEQGSSVIEIEPDGKAAAEIRAIADELFAIPPENSYELN	not soluble

— the DeepSol protein solubility set
